Among the data in publication PMC10331576 are Kd values, retold here.

By Kd is commonly meant the free concentration of one partner at which half of the binding sites on the other are occupied at equilibrium, for simple one-to-one binding.

The experiment deals with COVID-2019-Spike-328-585 (RBD) (SARS-CoV-2), P0DTC2. The experiment can be described thus: BLI; […] (HIS1K) […] (50 μM, 31 μM, and 8.8 μM); 30°C, PBS; 1:1 binding model; Octet HTX. As to conditions: remark: other sources report otherwise.

B1: DC-SIGN.Fc, Q9NNX6 (Fc fusion)
chain: QVSKVPSSISQEQSRQDAIYQNLTQLKAAVGELSEKSKLQEIYQELTQLKAAVGELPEKSKLQEIYQELTRLKAAVGELPEKSKLQEIYQELTWLKAAVGELPEKSKMQEIYQELTRLKAAVGELPEKSKQQEIYQELTRLKAAVGELPEKSKQQEIYQELTRLKAAVGELPEKSKQQEIYQELTQLKAAVERLCHPCPWEWTFFQGNCYFMSNSQRNWHDSITACKEVGAQLVVIKSAEEQNFLQLQSSRSNRFTWMGLSDLNQEGTWQWVDGSPLLPSFKQYWNRGEPNNVGEEDCAEFSGNGWNDDKCNLAKFWICKKSAASCSRDEEQFLSPAPATPNPPPA
As for B1, the Kd stood at 18.7 µM.
